Source: publication PMC10803776, “Structure of the M. tuberculosis DnaK−GrpE complex reveals how key DnaK roles are controlled” (Nature Communications, 2024)

How the values were obtained:
SEC = target: the molecule itself; assay: SEC
[1] = target: T1, Mycobacterium tuberculosis DnaK, full length, wild type (Mycobacterium tuberculosis, UniProt P9WMJ9 1-625); assay: ITC; as a1, with 2 mM ATP added to both the DnaK and the GrpE solution; conditions: both partners purified
T1 construct: DnaK (Hsp70 chaperone) of Mycobacterium tuberculosis, full length; also called Mtb DnaK; WT DnaK

[2] = target: T1, Mycobacterium tuberculosis DnaK, full …; assay: ITC; as a1, with 2 mM ADP added to both the DnaK and the GrpE solution; conditions: both partners purified

B1: Mycobacterium tuberculosis GrpE, full length, wild type (natural protein)
chain: MTDGNQKPDGNSGEQVTVTDKRRIDPETGEVRHVPPGDMPGGTAAADAAHTEDKVAELTADLQRVQADFANYRKRALRDQQAAADRAKASVVSQLLGVLDDLERARKHGDLESGPLKSVADKLDSALTGLGLVAFGAEGEDFDPVLHEAVQHEGDGGQGSKPVIGTVMRQGYQLGEQVLRHALVGVVDTVVVDAAELESVDDGTAVADTAENDQADQGNSADTSGEQAESEPSGS
notes: GrpE (nucleotide exchange factor) of Mycobacterium tuberculosis, full length; also called Mtb GrpE; WT GrpE
B1 was tested, and the “stoichiometry N” value (SEC) was 2, the Kd [1] was 20.7 µM and the “stoichiometry N” value [1] was 0.07. For the same binder, the Kd [2] was 1.79 µM and the “stoichiometry N” value [2] was 0.69.
